# Results reported in patent US20170037103A1 (University of California, published 2017).
# Bridges are numbered along the chain shown (N, C = ends). Where no end group is shown, it is not given here. [ ]: non-standard residue; d: D form. The star is where a group is joined. PalS‑X = 3,5-bis(methyl-S-cysteinyl)-1-(methyl-S-palmityl)-benzene joining the two Cys; Ida^NHPal = iminodiacetic acid mono-N-palmityl amide, CCCCCCCCCCCCCCCCNC(=O)CNCC(=O)*; dPEG12 = 40-amino-4,7,10,13,16,19,22,25,28,31,34,37-dodecaoxotetradecanoic acid; Oic = O=C(O)[C@@H]1C[C@@H]2CCCC[C@@H]2N1; Palmitoyl = CCCCCCCCCCCCCCCC(=O)*; Tic = O=C(O)[C@@H]1Cc2ccccc2CN1; Aib = CC(C)(N)C(=O)O; Ahx = NCCCCCC(=O)O
# T1: human neuromedin U receptor NMUR1 (human, UniProt Q9HB89 1-426)
# T1 sequence (looked up): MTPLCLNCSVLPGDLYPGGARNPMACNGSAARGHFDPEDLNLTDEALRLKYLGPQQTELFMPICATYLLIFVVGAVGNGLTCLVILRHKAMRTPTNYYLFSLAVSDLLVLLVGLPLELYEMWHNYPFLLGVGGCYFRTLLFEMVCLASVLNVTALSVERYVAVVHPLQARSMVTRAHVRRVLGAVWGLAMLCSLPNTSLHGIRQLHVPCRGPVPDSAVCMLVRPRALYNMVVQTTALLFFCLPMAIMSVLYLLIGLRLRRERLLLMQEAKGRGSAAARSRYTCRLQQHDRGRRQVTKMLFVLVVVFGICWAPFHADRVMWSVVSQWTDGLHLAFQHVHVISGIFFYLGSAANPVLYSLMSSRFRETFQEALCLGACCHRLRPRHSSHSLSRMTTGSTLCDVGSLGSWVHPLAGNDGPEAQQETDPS
# Biological target: T2, human neuromedin U receptor NMUR2 (human, UniProt Q9GZQ4 1-415)
# T2 construct: whole, on cells; also called neuromedin U 2 receptor; HEK-NMU2
# Assay: told from the calcium mobilization assay on HEK293 cells expressing the receptor; no direct binding assay
# Experimental: To test whether neuromedin U can be modified/derivatized to yield truncated bioactive compound(s) that may be useful as therapeutics, we synthesized a small library (25 peptides) of hNMU analogs utilizing various stabilization protocols, including: cyclization, lipidation, introduction of α,α-disubstituted and N-methylated amino acids, retro-inverso-approach, and combination of such (see Table 1). Subsequently all analogues were tested against human neuromedin U receptors (NMUR1 and NMUR2) in calcium mobilization assay (collaboration with Dr Gary Willars, University of Leicester, UK).
# HEK293 cells expressing either the neuromedin U 1 receptor or neuromedin U 2 receptor (HEK-NMU1 and HEK-NMU2 respectively) were grown to approximately 90% confluence in ELISA strip plates (96-well format) pre-coated with poly-D-lysine (0.1% w/v) and loaded for 45 min at 37° C. with 2 iM fluo-4-AM in Krebs'-HEPES buffer with bovine serum albumin (KHB-BSA; composition: 10 mM HEPES; 4.2 mM NaHCO₃; 11.7 mM D-glucose; 1.18 mM MgSO₄.7H₂O; 1.18 mM KH₂PO₄; 4.69 mM KCl; 118 mM NaCl; 1.3 mM CaCl₂.2H₂O; 0.1% (w/v) BSA; pH 7.4). Monolayers were then washed and equilibrated for 5 min at 37° C. in 100 il KHB-BSA for subsequent recording of fluorescence as an index of intracellular [Ca²⁺] ([Ca²⁺]ᵢ) using a microplate reader (NOVOstar; BMG LABTECH, Aylesbury, U.K.). […]
# T2 sequence (Q9GZQ4 whole entry): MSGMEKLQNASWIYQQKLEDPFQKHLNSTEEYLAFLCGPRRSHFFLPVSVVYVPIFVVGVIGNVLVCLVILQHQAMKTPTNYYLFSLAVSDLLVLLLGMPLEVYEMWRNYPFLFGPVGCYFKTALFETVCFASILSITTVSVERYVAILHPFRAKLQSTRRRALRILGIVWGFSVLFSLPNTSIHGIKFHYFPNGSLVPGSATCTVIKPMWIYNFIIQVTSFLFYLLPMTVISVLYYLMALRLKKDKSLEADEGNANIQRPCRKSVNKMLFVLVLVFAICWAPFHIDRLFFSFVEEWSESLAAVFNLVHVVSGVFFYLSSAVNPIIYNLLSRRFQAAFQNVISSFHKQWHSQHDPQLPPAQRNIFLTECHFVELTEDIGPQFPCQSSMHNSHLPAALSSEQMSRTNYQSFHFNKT
row,binding result,Binder
1,binds,Palmitoyl-[dPEG12][Aib]FLFRPRN-NH2 [NM4]

# Biological target: T1, human neuromedin U receptor NMUR1
# Assay: cell-based or functional assay
row,"NMUR1 EC50 [nM], calcium mobilization assay",Binder
1,3980 nM,C[Ahx]FLFR[Tic]RN[Ahx]C-NH2 (linker 1-11 via PalS‑X) [NM16]
2,58.9 nM,[Aib]FLFRPRN[Aib]-NH2 (N-terminus assumed; SMILES CC(C)C[C@H](NC(=O)[C@H](Cc1ccccc1)NC(=O)C(C)(C)N)C(=O)N[C@@H](Cc1ccccc1)C(=O)N[C@@H](CCCNC(=N)N)C(=O)N1CCC[C@H]1C(=O)N[C@@H](CCCNC(=N)N)C(=O)N[C@@H](CC(N)=O)C(=O)NC(C)(C)C(N)=O) [NM5]
3,331 nM,Palmitoyl-[Aib]FLFRPRN-NH2 (SMILES CCCCCCCCCCCCCCCC(=O)NC(C)(C)C(=O)N[C@@H](Cc1ccccc1)C(=O)N[C@@H](CC(C)C)C(=O)N[C@@H](Cc1ccccc1)C(=O)N[C@@H](CCCNC(=N)N)C(=O)N1CCC[C@H]1C(=O)N[C@@H](CCCNC(=N)N)C(=O)N[C@@H](CC(N)=O)C(N)=O) [NM3]
4,1.12 nM,FRVDEEFQSPFASQSRGYFLFRPRN-NH2 [human neuromedin U]
5,3980 nM,C[Ahx]FLFR[Tic]RN[Ahx]C-NH2 (cysteine pairing not given here) [NM10]
6,1.51 nM,Palmitoyl-[dPEG12][Aib]FLFRPRN-NH2 [NM4]
7,170 nM,{Palmitoyl-dPEG12}-[Aib]FLFRPRN[Aib]-NH2 [NM7]
8,1410 nM,C[Ahx]FLFR[Oic]RN[Ahx]C-NH2 (cysteine pairing not given here) [NM9]
9,43.6 nM,{Nic-Ida^NHPal}-[Aib]FLFRPRN-NH2 [NM4A-Nic]
10,0.58 nM,Ac-FLFRPRN-NH2 [NM1]
11,0.63 nM,[Aib]FLFRPRN-NH2 (N-terminus assumed; SMILES CC(C)C[C@H](NC(=O)[C@H](Cc1ccccc1)NC(=O)C(C)(C)N)C(=O)N[C@@H](Cc1ccccc1)C(=O)N[C@@H](CCCNC(=N)N)C(=O)N1CCC[C@H]1C(=O)N[C@@H](CCCNC(=N)N)C(=O)N[C@@H](CC(N)=O)C(N)=O) [NM2]
12,7.41 nM,{Ida^NHPal}-[Aib]FLFRPRN-NH2 [NM4A]
13,186 nM,C[Ahx]FLFRPRN[Ahx]C-NH2 (cysteine pairing not given here) [NM8]
